Article PMC11764276 (2024)
Positions count from the first letter of the chain named.

B1: 2196_CDRL3_RP (antibody, V domains shown)
VH: QMQLVQSGPEVKKPGTSVKVSCKASGFTFMSSAVQWVRQARGQRLEWIGWIVIGSGNTNYAQKFQERVTITRDMSTSTAYMELSSLRSEDTAVYYCAAPYCSSISCNDGFDIWGQGTMVTVSS
VL: not shown
B2: DMAb-2196_CDRL3_P (antibody, V domains shown)
VH: B1 VH
VL: not shown
B3: 2196_CDRL1_des1 (antibody, V domains shown)
VH: B1 VH
VL: EIVLTQSPGTLSLSPGERATLSCRASQTISNNFVAWYQQKPGQAPRLLIYGASSRATGIPDRFSGSGSGTDFTLTISRLEPEDFAVYYCQHYGSSRGWTFGQGTKVEIK
B4: 2196 WT (recombinant mAb COV2-2196) (antibody, V domains shown)
VH: B1 VH
VL: not shown
B5: 2196 HC + 2072 LC (antibody, V domains shown)
VH: B1 VH
VL: not shown
B6: 2196_CDRL1_des2 (antibody, V domains shown)
VH: B1 VH
VL: B3 VL with N32S, F33Y
B7: 2196_CDRL3_Q (antibody, V domains shown)
VH: B1 VH
VL: not shown
B8: 2196_CDRL3_GP (antibody, V domains shown)
VH: B1 VH
VL: not shown

Each binder was assayed against T1, RBD (residues 334–527 of the SARS-CoV-2 spike glycoprotein) (SARS-CoV-2, UniProt P0DTC2 334-527) (assay: SPR).

First: B1
Second: B2
The Kd of the first is 2.3-fold higher: 203 nM for the first, 88.5 nM for the second.

Work on B3 yielded a Kd of 47.6 nM.

Target: T1, RBD (residues 334–527 of the SARS-CoV-2 …)
Test: SPR
Remark: another data set of the same source

Compared with B1, B4 is 9-fold lower in koff: 0.12 s⁻¹ for the first, 0.0133 s⁻¹ for the second.

B5 and B6 are within 1.5-fold of each other in koff: 0.0309 s⁻¹ for the first, 0.0216 s⁻¹ for the second.

Going from B7 to B2, the koff rises from 0.0171 s⁻¹ to 0.1 s⁻¹ (5.8-fold).

Going from B8 to B3, the koff rises from 0.0133 s⁻¹ to 0.0823 s⁻¹ (6.2-fold).

Target: T1, RBD (residues 334–527 of the SARS-CoV-2 …)
Test: SPR
Remark: another data set of the same source

In the case of B1, the Kd is reported as 204 nM.
